{"source": "paper PMC4806843", "about": "“Structural and Functional Analysis of Calcium Ion Mediated Binding of 5-Lipoxygenase to Nanodiscs” (PLoS ONE, 2016)", "proteins": {"B1": {"name": "human 5-lipoxygenase (enzyme, UniProt P09917 1-674, looked up)", "chain": "MPSYTVTVATGSQWFAGTDDYIYLSLVGSAGCSEKHLLDKPFYNDFERGAVDSYDVTVDEELGEIQLVRIEKRKYWLNDDWYLKYITLKTPHGDYIEFPCYRWITGDVEVVLRDGRAKLARDDQIHILKQHRRKELETRQKQYRWMEWNPGFPLSIDAKCHKDLPRDIQFDSEKGVDFVLNYSKAMENLFINRFMHMFQSSWNDFADFEKIFVKISNTISERVMNHWQEDLMFGYQFLNGCNPVLIRRCTELPEKLPVTTEMVECSLERQLSLEQEVQQGNIFIVDFELLDGIDANKTDPCTLQFLAAPICLLYKNLANKIVPIAIQLNQIPGDENPIFLPSDAKYDWLLAKIWVRSSDFHVHQTITHLLRTHLVSEVFGIAMYRQLPAVHPIFKLLVAHVRFTIAINTKAREQLICECGLFDKANATGGGGHVQMVQRAMKDLTYASLCFPEAIKARGMESKEDIPYYFYRDDGLLVWEAIRTFTAEVVDIYYEGDQVVEEDPELQDFVNDVYVYGMRGRKSSGFPKSVKSREQLSEYLTVVIFTASAQHAAVNFGQYDWCSWIPNAPPTMRAPPPTAKGVVTIEQIVDTLPDRGRSCWHLGAVWALSQFQENELFLGMYPEEHFIEKPVKEAMARFRKNLEAIVSVIAERNKKKQLPYYYLSPDRIPNSVAI", "notes": "5-lipoxygenase (5LO), human, recombinant from pT3-5LO; 78 kDa; The preparation holds monomer and dimer, which were separated by SEC; also called 5LO; monomeric 5LO; source: E. coli BL21-(DE3) transformed with pT3-5LO, purified (ammonium sulfate precipitation, ATP agarose, gel filtration)"}}, "target": "the molecule itself", "experiment": "SEC; size exclusion chromatography of the purified 5LO preparation; standards aldolase (158 kDa) and conalbumin (75 kDa); two peaks, dimer and monomer"}
{"protein": "B1", "values": [{"measurement": "stoichiometry N", "result": 2}]}
